Columns and labels:
[1] = target: T1, VACV B5 protein (vaccinia virus, UniProt Q01227 20-275); assay: purified antigen ELISA
[2] = target: T1, VACV B5 protein; assay: lysate ELISA
[3] = target: T1, VACV B5 protein; assay: cell-based or functional assay
[4] = target: T2, VACV D8 protein (vaccinia virus, UniProt P04195 1-261); assay: cell-based or functional assay
T2 sequence: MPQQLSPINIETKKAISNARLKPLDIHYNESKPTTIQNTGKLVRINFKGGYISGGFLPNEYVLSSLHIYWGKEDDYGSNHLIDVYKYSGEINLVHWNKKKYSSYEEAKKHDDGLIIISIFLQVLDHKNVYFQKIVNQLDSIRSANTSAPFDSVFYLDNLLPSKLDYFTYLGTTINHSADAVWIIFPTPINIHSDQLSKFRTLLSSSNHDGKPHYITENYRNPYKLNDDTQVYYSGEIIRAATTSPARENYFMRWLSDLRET

[5] = target: T2, VACV D8 protein; assay: purified antigen ELISA
[6] = target: T2, VACV D8 protein; assay: lysate ELISA
[7] = target: T3, VACV L1 protein (vaccinia virus, UniProt P07612 1-185); assay: cell-based or functional assay
T3 sequence: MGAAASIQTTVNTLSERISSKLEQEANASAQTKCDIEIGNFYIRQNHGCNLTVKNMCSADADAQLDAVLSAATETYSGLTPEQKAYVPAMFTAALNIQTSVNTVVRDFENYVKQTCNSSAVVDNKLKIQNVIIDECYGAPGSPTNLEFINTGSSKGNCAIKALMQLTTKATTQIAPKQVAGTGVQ

[8] = target: T3, VACV L1 protein; assay: purified antigen ELISA
[9] = target: T4, VACV A33 protein (vaccinia virus, UniProt P68617 58-185); assay: purified antigen ELISA
[10] = target: T4, VACV A33 protein; assay: lysate ELISA
[11] = target: T4, VACV A33 protein; assay: cell-based or functional assay
[12] = target: T5, VACV H3 protein (vaccinia virus, UniProt P07240 1-278); assay: lysate ELISA
T5 sequence: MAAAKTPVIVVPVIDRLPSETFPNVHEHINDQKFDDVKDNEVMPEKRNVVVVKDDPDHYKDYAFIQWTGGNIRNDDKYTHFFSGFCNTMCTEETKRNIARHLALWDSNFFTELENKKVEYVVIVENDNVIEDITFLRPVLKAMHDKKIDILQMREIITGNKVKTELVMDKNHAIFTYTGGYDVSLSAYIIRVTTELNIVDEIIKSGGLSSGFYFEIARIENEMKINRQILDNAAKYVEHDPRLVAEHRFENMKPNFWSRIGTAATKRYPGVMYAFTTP

B1: MPXV-43 (antibody, V domains shown)
VH: QVQLVQSGAEVKKPGASVKVSCKASGYTFTKYTIHWVRQAPGQRLEWVGGIYAGYGNTRYSQKFQGRVTITRDTSASTAYMELSSLRSEDTAVYFCARDFEDFDSWTGYYSWLHWGQGTLVTVSS
VL: EIVLTQSPGTLSLSPGERATLSCRASQSVSSTYLAWYQQKPGQAPRLLIYGASSRATGIPDRFSGSGSGTDFTLTITRLEPEDFAMYFCQQYDSSPSITFGQGTRLEIK
notes: human IgG1, anti-B5
EC50 [1]: 10.1 µg/mL | EC50 [2]: 0.011 µg/mL

B2: MPXV-2 (antibody, V domains shown)
VH: QVQLVQSGAEVKKPGASVKVSCKTSGYTFTTYAVHWVRQAPGQRLEWMGWINPGDGDTRYAQKFQDRVTISSDTSATTVYMELSSLRSEDTAVYFCARPRASLLRYFDWLFEQWGQETLVTVSS
VL: EIVLTQSPGTLSLSPGDRATLSCGASQSIHHNYVAWYQQRPGQAPRLLIFGASSRATGIPDRFTGSGSGTEFTLTINRLEPEDFAVYYCQQYGNSVPYSFGQGTKVDIK
notes: human IgG1, anti-B5
PRNT Emax, VACV EV+C' [3]: 67% | PRNT IC50, VACV EV+C' [3]: 1 µg/mL | EC50 [1]: 0.03 µg/mL | EC50 [2]: > 6 µg/mL

B3: VACV-128 (antibody, V domains shown)
VH: EVQLVQSGAEVKKPGATVKISCKVSGYTFTDYYMHWVQQAPGKGLKWMGLLDPLDGETIYSEKFQGKVTITADTSTDTAYMELSSLRSEDTAVYYCARELTGYLNYWGQGTLVTVSS
VL: DIQMTQSPSSLSASVGDRVTITCRASPGICNYLAWYQHKPGKVPKLLIYAASTLQSGVPSRFTGVGSGTNFTLTINNLPPENVATYYCQKYNSAPHTFGQGTKVDIK
notes: human IgG1, anti-D8
PRNT Emax, VACV MV+C' [4]: 86% | PRNT IC50, VACV MV+C' [4]: 0.5 µg/mL | EC50 [5]: 1.1 µg/mL | EC50 [6]: 0.3 µg/mL

B4: MPXV-25 (antibody, V domains shown)
V domain 1: QVQLVESGGGVVQPGRSLKISCAASGFTFSDSGLHWVRQAPGKGLECVAFIWYDGSTKYYADSVKGRFTISRDNSRNTLYLQMKSLRAEDTAVYYCARELGYCSGGTCYSMGAFDIWGQGTLVTVSQ
V domain 2: QSVLTQPASVSGSPGQSITISCTGTSSDVGSYNLVSWYQQHPGKAPKLMIYEVSKRPSGVSNRFSGSKSDNTASLTISGLQAEDEADYYCCSYVGSSTSVFGGGTQVTVL
notes: human IgG1, anti-B5
PRNT Emax, VACV EV+C' [3]: 77% | PRNT IC50, VACV EV+C' [3]: 0.02 µg/mL | EC50 [1]: 0.19 µg/mL | EC50 [2]: 0.066 µg/mL

B5: VACV-33 (antibody, V domains shown)
VH: QLQLQESGPGLVKPSETLSLTCTVSGGSISSGGYYWGWIRQPPGKGLEWIASIYYSGSTYYNPSLKSRVTISVDTSKTQFSLKLSSVTAADTAVYYCARQSSSTGGFHYWGQGTLVTVSS
VL: QSVLTQPPSVSGAPGQRVTISCTGSSSNIGAGYDVHWYQHLPGTAPKLLIYGNSNRPSGVPDRFSGSKSGTSASLAITGLQAEDEANYYCQSYDSSLSGREVFGGGTQLTVL
notes: human IgG1, anti-L1
PRNT Emax, VACV MV [7]: 56% | PRNT Emax, VACV MV+C' [7]: 71% | PRNT IC50, VACV MV [7]: 0.3 µg/mL | PRNT IC50, VACV MV+C' [7]: 0.7 µg/mL | EC50 [8]: 0.02 µg/mL

B6: VACV-80 (antibody, V domains shown)
VH: EVQLVESGGGLVQPGESLKISCAATGFTFSSYWMHWVRQAPGKGLVWVSGINSDGSSTSYADSVKGRFTIARDNAKGTLYLQMNSLRAEDTAVYYCARVGAVRIAAAAPDYWGQGTLVTVSS
VL: not shown
notes: human IgG1, anti-A33
EC50 [9]: 0.065 µg/mL | EC50 [10]: > 69 µg/mL

B7: MPXV-12 (antibody, V domains shown)
VH: QVQLQQWGAGLLKPSETLSLTCAVYGGSFTNYYWSWIRQFPGKGLEYIGEIDHSGSANYNPSLKSRVTISLDTSKNQFSLRLSSVTAADTAVYFCARDVYGSGTYYWFDPWGQGTL
VL: DIQMTQSPTSLSASVGDRVTITCRASQRISSHLNWYQQKPGKAPKLLIYVASSLQSGVPSRFSGSGSGTDYTLTISSLQPEDFATYFCQQSYTTPYTFGQGTNLQMK
notes: human IgG3, anti-B5
EC50 [1]: 0.1 µg/mL | EC50 [2]: 5.85 µg/mL

B8: VACV-34 (antibody, V domains shown)
VH: QVQLVESGGGLVQPGRSLRLSCAASGFTFDDYAMHWVRQAPGKGLEWVSGLSWNSGSIGYADSVKGRFTISRDNAKNSLYLQMNSLRAEDTALYYCAKETEKYYYDSSGYDYWGQGTLVTVSS
VL: EIVLTQSPGTLSLSPGERATLSCRASQSVSSIYLAWYQQKPGQAPRLLIYGASSRATGIPDRFSGSGSGTDFTLTISRLEPEDFAVYYCQQYGSRGTFGQGTKLEIK
notes: human IgG1, anti-L1
PRNT Emax, VACV MV [7]: 76% | PRNT Emax, VACV MV+C' [7]: 78% | PRNT IC50, VACV MV [7]: 3.3 µg/mL | PRNT IC50, VACV MV+C' [7]: 0.96 µg/mL | EC50 [8]: 0.04 µg/mL

B9: MPXV-51 (antibody, V domains shown)
VH: QLQLQESGPGLVKPSETLSLSCTVSGGSINSRTYYWGWIRQPPGKGPEWIGTVFHNVSTLYTSSLRSRVTISVDTSKNRFSLKLTSVTAADTAVYFCGRLTPRNLFRGTLVRWVDPWGQGILVTVSS
VL: EIVLAQSPGTLSLSPGERATLSCRASHNLNSNYLAWYQQKPGQAPRLLIYGASSRATGIPDRFTGSGSGTDFTLTISRLEPEDFAVYYCQQYAGSLTFGGGTKVDIK
notes: human IgG1, anti-A33
PRNT Emax, VACV EV+C' [11]: 50% | PRNT IC50, VACV EV+C' [11]: 0.1 µg/mL | EC50 [9]: 0.04 µg/mL | EC50 [10]: 0.05 µg/mL

B10: MPXV-56 (antibody, V domains shown)
VH: QVQLQQSGPGLVKPSQTLSLTCAISGDSVSSNSAAWIWIRQSPSRGLEWLGTTYYRSEWYSDYPASVKSRVTINADTSKNQFSLQLNSVTPEDTAVYYCARITVGYNSPHLRVTRGWLDPWGPGNP
VL: not shown
notes: human IgG2, anti-A33
PRNT Emax, VACV EV+C' [11]: 56% | PRNT IC50, VACV EV+C' [11]: 0.16 µg/mL | EC50 [9]: 0.06 µg/mL | EC50 [10]: > 0.07 µg/mL

B11: MPXV-26 (antibody, V domains shown)
VH: QVQLVQSGGGLIQPGGSLRLSCVVSGFNVATNYMSWVRQAPGKGLEWVSVIYSGGSTYYADSVKGRFTISRDNSKNTVFLQMNSLRPEDTAAYYCAKGGGLGLDYWGQGTLVTVSS
VL: QSALTQPPSASGSPGQSVTITCTGSSSDVGGYNYVSWYQQHPGKAPKVVIYEVNKRPSGVPHRFSGSKSGNTASLTVSGLQAEDEADYYCSSYAGTETVAFGGGTKLTVL
notes: human IgG1, anti-L1
PRNT Emax, VACV MV [7]: 95% | PRNT Emax, VACV MV+C' [7]: 80% | PRNT IC50, VACV MV [7]: 0.3 µg/mL | PRNT IC50, VACV MV+C' [7]: 0.7 µg/mL | EC50 [8]: 0.05 µg/mL

B12: VACV-22 (antibody, V domains shown)
VH: QVQLVESGGGVVQPGRSLRLSCAASGFTFSNSGMHWVRQAPGKGLEWVAVIWFDGTNKYYADSVKGRFTISRDNSKNTLYLQMNSLRAEDTAVYYCARVPCGGDCYSGYLQHWGQGTLVTVSS
VL: AIVMTQSPATLSVSPGERATLSCRASQSVSSTLAWYQQKPGQAPRLLIYGASTKATGIPARFSGSGSGTEFTLTISSLQSEDFAVYYCQHYNNWPPLLTFGGGTKVDIK
notes: human IgG1, anti-A33
PRNT Emax, VACV EV+C' [11]: 87% | PRNT IC50, VACV EV+C' [11]: 9.7 µg/mL | EC50 [9]: 0.03 µg/mL | EC50 [10]: > 0.008 µg/mL

B13: VACV-249 (antibody, V domains shown)
VH: QVQLVESGPGLVKPSQTLSLTCTVSGGSISRGIYYWSWIRQPAGKGLEWIGRIYTSGSTNYNPSLKSRVTISVDTSKNQFSLKLSSVTAADTAVYYCARDGWYGWYLDLWGRGTLVTVSS
VL: EIVMTQSPATLSVSPGERATLSCRASQSVSSDLAWYQQKPGQAPRLLIYGASTRATGIPARFSGSGSGTEFTLTISSLQSEDFAVYYCQQYNNWPGTFGGGTKVDIK
notes: human IgG1, anti-D8
PRNT Emax, VACV MV+C' [4]: 70% | PRNT IC50, VACV MV+C' [4]: 0.2 µg/mL | EC50 [5]: 2.8 µg/mL | EC50 [6]: 0.3 µg/mL

B14: MPXV-76 (antibody, V domains shown)
VH: EVQLVESGGGLVKPGESLKISCAASGFSFNNAWMNWVRQAPGKGLEWVGRIKTHADGGTTDYAAPVTGRFTISRDDSKNTLSLQMSSLKTEDTAVYYCTTSFTFPRRIFAYWGQGTLV
VL: EIVLTQSPATLSLSPGERATLSCRASQSVSSYLAWYQQKPGQAPRLLIYDTSNRATGIPARFSGSGSGTDFTLTISSLEPEDLAVYYCQLRNSWPPTFGPGTKVDIK
notes: human IgG1, anti-H3
EC50 [12]: 0.008 µg/mL

B15: VACV-304 (antibody, V domains shown)
VH: EVQLVESGGGLVQPGGSLRLSCVVSGFTFSNYWMSWVRQAPGKGLEWVANIKQDGSKKYYVDSVTGRFTISRDNAKNSLYLQMNSLRAEDTAVYYCATLNLELAVDAISEALKWGQGTLVTVSS
VL: SYELTQPPSVSVSPGQTARITCSGDALPKQFAYWYQQKPGQAPVVMIYKDSERPSGIPERFSGSSSGTTVTLTISGVQAEDEADYYCQSVDNSGTYEVFGGGTQLTVL
notes: human IgG1, anti-D8
PRNT Emax, VACV MV+C' [4]: 69% | PRNT IC50, VACV MV+C' [4]: 0.02 µg/mL | EC50 [5]: 0.05 µg/mL | EC50 [6]: 0.04 µg/mL

Source: patent US11667697 (VANDERBILT UNIVERSITY, dated 2023)
